Common to all, as to details: protein: recombinant; tags: N-terminal His6-GFP, cleaved with TEV; chain copies: 4
The target of data set [1] is T1, M2-1 (human respiratory syncytial virus …, UniProt P04545 1-194).
T1 sequence: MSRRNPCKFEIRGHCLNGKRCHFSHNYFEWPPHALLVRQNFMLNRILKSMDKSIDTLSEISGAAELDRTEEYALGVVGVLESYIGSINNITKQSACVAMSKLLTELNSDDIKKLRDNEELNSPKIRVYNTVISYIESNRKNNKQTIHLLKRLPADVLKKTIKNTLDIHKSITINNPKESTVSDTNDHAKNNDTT
The data set is described as follows: SEC; excess RNA; EMSA: 20 mM HEPES pH 7.5, 200 mM NaCl, 2 mM TCEP, 5% glycerol, room temperature 1 h, 4% native PAGE, SYBR Gold; SEC: Superdex 200 Increase 10/300, buffer not given. (In general: SEC sorts molecules by how far they enter the pores of the column.)

Data set [2] deals with T1, M2-1. Description: EMSA; 0.5 uM RNA; Hill 0.95; EMSA: 20 mM HEPES pH 7.5, 200 mM NaCl, 2 mM TCEP, 5% glycerol, room temperature 1 h, 4% native PAGE, SYBR Gold; SEC: Superdex 200 Increase 10/300, buffer not given.
Data set [3] concerns the target T1, M2-1. The data set is described as follows: EMSA; 0.5 uM RNA; Hill 0.83; EMSA: 20 mM HEPES pH 7.5, 200 mM NaCl, 2 mM TCEP, 5% glycerol, room temperature 1 h, 4% native PAGE, SYBR Gold; SEC: Superdex 200 Increase 10/300, buffer not given.
For data set [4], the target named is T1, M2-1. Description: EMSA; 0.5 uM RNA; Hill 8.10; EMSA: 20 mM HEPES pH 7.5, 200 mM NaCl, 2 mM TCEP, 5% glycerol, room temperature 1 h, 4% native PAGE, SYBR Gold; SEC: Superdex 200 Increase 10/300, buffer not given. (In EMSA bound probe runs differently from free probe, usually more slowly.)
For data set [5], the target named is T1, M2-1. Description: EMSA; 0.5 uM RNA; Hill 5.17; EMSA: 20 mM HEPES pH 7.5, 200 mM NaCl, 2 mM TCEP, 5% glycerol, room temperature 1 h, 4% native PAGE, SYBR Gold; SEC: Superdex 200 Increase 10/300, buffer not given.

B1: Poly16A (ssRNA)
RNA: AAAAAAAAAAAAAAAA
Regarding B1, in the data set with M2-1 [1], the binding result is “binds”.

B2: Poly28U (ssRNA)
RNA: UUUUUUUUUUUUUUUUUUUUUUUUUUUU
Take B2: the binding result with M2-1 [1] is given as “binds”.

B3: Poly14A (ssRNA)
RNA: AAAAAAAAAAAAAA
On to B3, for which the Kd – broadly, the free concentration of one partner at which half of the binding sites on the other are occupied at equilibrium, for simple one-to-one binding – with M2-1 [2] was determined as 0.58 µM.

B4: Poly16U (ssRNA)
RNA: UUUUUUUUUUUUUUUU
For B4, the binding result with M2-1 [1] is reported as “no binding”.

B5: SH16(+) (ssRNA)
RNA: AGUUAAUUAAAAAUAG
Turning to B5, the binding result in the data set with M2-1 [1] is given as “binds”.

B6: SH16(-) (ssRNA)
RNA: CUAUUUUUAAUUAACU
In the case of B6, the binding result in the data set with M2-1 [1] is recorded as “no binding”.

B7: Poly9A (ssRNA)
RNA: AAAAAAAAA
Take B7: the Kd with M2-1 [3] is 1.94 µM.

B8: Poly24A (ssRNA)
RNA: AAAAAAAAAAAAAAAAAAAAAAAA
Turning to B8, the Kd with M2-1 [4] came to 4.44 µM.

B9: Poly16C (ssRNA)
RNA: CCCCCCCCCCCCCCCC
As for B9, in the data set with M2-1 [1], the binding result is recorded as “no binding”.

B10: Poly19A (ssRNA)
RNA: AAAAAAAAAAAAAAAAAAA
For B10, the equilibrium dissociation constant (Kd) with M2-1 [5] stood at 2.72 µM.

B11: Poly21U (ssRNA)
RNA: UUUUUUUUUUUUUUUUUUUUU
Turning to B11, in the data set with M2-1 [1], the binding result is “binds”.

These data come from publication PMC11334520, “In vitro higher-order oligomeric assembly of the respiratory syncytial virus M2-1 protein with longer RNAs”.
